Test results published in article doi:10.1101/602623.

How the values were obtained:
[1] = target: T1, Cas1-2 integrase complex Wt (Escherichia coli (type I-E), UniProt Q46896;P45956 1-305;1-94); experiment: EMSA
T1 sequence 1: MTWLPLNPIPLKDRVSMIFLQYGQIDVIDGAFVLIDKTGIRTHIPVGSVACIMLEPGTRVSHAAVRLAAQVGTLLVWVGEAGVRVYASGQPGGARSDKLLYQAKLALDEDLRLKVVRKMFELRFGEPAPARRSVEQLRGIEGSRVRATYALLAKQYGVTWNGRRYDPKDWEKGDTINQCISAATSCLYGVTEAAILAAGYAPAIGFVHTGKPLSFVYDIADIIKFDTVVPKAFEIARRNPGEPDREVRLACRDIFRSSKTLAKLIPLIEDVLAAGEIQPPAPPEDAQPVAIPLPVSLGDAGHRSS
T1 sequence 2: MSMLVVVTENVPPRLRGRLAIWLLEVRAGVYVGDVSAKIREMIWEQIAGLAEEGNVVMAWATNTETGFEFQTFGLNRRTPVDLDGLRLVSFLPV

[2] = target: T1, Cas1-2 integrase complex Wt; experiment: T5 exonuclease footprinting
Cas1-2 Y22A = target: T2, Cas1-2 Y22A (Escherichia coli (type I-E), UniProt Q46896;P45956 1-305;1-94, Y22A); experiment: EMSA
T2 sequence 1: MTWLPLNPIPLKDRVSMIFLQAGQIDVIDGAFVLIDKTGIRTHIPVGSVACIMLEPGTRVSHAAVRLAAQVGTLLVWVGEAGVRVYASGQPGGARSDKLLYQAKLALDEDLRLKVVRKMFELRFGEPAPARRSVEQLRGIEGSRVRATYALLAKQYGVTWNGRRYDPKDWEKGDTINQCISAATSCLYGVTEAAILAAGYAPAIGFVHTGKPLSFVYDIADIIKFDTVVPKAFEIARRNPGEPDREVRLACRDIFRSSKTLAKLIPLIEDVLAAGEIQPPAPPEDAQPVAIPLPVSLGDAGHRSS
T2 sequence 2: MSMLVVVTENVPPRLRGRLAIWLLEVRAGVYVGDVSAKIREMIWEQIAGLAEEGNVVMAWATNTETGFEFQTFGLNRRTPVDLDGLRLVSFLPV

B1: P23[3'-10] (dsDNA)
DNA 1: ATTTACTACTCGTTCTGGTGTTTCTCGTCAGGG
DNA 2: AAACACCAGAACGAGTAGTAAATTGGGCTTGAG
Kd [1]: 286 nM

B2: P23[3'-5] (dsDNA)
DNA 1: ATTTACTACTCGTTCTGGTGTTTCTCGT
DNA 2: AAACACCAGAACGAGTAGTAAATTGGGC
Kd [1]: 254 nM

B3: P33 (dsDNA)
DNA 1: GCCCAATTTACTACTCGTTCTGGTGTTTCTCGT
DNA 2: ACGAGAAACACCAGAACGAGTAGTAAATTGGGC
Kd [1]: 2660 nM

B4: P63mPAMT* (dsDNA)
DNA 1: CTCCGCGCTGTAGCCCTCACCACTGTTGTGCACGACGACACCAGTCCGTGGCGTTATCCAGCT
DNA 2: AGCTGGATAACGCCACGGACTGGTGTCGTCGTGCACAACAGTGGTGAGGGCTACAGCGCGGAG
binding result [2]: binds

B5: P63mPAMB* (dsDNA)
DNA 1: CTCCGCGCTGTAGCCCTCACCACTGTTGTGCACGACGACACCAGTCCGTGGCGTTATCCAGCT
DNA 2: AGCTGGATAACGCCACGGACTGGTGTCGTCGTGCACAACAGTGGTGAGGGCTACAGCGCGGAG
binding result [2]: binds

B6: P63 (dsDNA)
DNA 1: CTCCGCGCTGTAGAAGTCACCATTGTTGTGCACGACGACATCATTCCGTGGCGTTATCCAGCT
DNA 2: AGCTGGATAACGCCACGGAATGATGTCGTCGTGCACAACAATGGTGACTTCTACAGCGCGGAG
Kd (Cas1-2 Y22A): 6220 nM | Kd [1]: 831 nM
